First the molecules themselves.
B1: CREB/ATF bZIP transcription factor (Homo sapiens), Q9NS37 (parent)
chain: MRHSLTKLLAASGSNSPTRSESPEPAATCSLPSDLTRAAAGEEETAAAGSPGRKQQFGDEGELEAGRGSRGGVAVRAPSPEEMEEEAIASLPGEETEDMDFLSGLELADLLDPRQPDWHLDPGLSSPGPLSSSGGGSDSGGLWRGDDDDEAAAAEMQRFSDLLQRLLNGIGGCSSSSDSGSAEKRRRKSPGGGGGGGSGNDNNQAATKSPRKAAAAAARLNRLKKKEYVMGLESRVRGLAAENQELRAENRELGKRVQALQEESRYLRAVLANETGLARLLSRLSGVGLRLTTSLFRDSPAGDHDYALPVGKQKQDLLEEDDSAGGVCLHVDKDKVSVEFCSACARKASSSLKM
partner: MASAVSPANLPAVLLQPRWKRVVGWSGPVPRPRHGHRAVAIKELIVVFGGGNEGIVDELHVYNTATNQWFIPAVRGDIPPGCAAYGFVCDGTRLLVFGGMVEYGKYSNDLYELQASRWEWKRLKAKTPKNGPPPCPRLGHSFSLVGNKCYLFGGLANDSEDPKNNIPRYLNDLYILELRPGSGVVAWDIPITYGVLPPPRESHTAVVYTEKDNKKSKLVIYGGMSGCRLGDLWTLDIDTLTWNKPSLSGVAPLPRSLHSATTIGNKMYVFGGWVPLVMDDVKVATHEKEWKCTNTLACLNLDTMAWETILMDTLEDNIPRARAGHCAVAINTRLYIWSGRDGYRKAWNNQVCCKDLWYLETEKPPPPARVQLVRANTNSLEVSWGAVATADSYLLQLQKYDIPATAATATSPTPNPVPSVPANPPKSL
B2: Estrogen-related receptor gamma (Homo sapiens), P62508-3 (parent)
chain: MSNKDRHIDSSCSSFIKTEPSSPASLTDSVNHHSPGGSSDASGSYSSTMNGHQNGLDSPPLYPSAPILGGSGPVRKLYDDCSSTIVEDPQTKCEYMLNSMPKRLCLVCGDIASGYHYGVASCEACKAFFKRTIQGNIEYSCPATNECEITKRRRKSCQACRFMKCLKVGMLKEGVRLDRVRGGRQKYKRRIDAENSPYLNPQLVQPAKKPLLWSDPADNKIVSHLLVAEPEKIYAMPDPTVPDSDIKALTTLCDLADRELVVIIGWAKHIPGFSTLSLADQMSLLQSAWMEILILGVVYRSLSFEDELVYADDYIMDEDQSKLAGLLDLNNAILQLVKKYKSMKLEKEEFVTLKAIALANSDSMHIEDVEAVQKLQDVLHEALQDYEAGQHMEDPRRAGKMLMTLPLLRQTSTKAVQHFYNIKLEGKVPMHKLFLEMLEAKV
B3: GRB10-interacting GYF protein 1 (Homo sapiens), O75420 (parent)
chain: MAAETLNFGPEWLRALSGGGSVASPPPSPAMPKYKLADYRYGREEMLALYVKENKVPEELQDKEFAAVLQDEPLQPLALEPLTEEEQRNFSLSVNSVAVLRLMGKGAGPPLAGTSRGRGSTRSRGRGRGDSCFYQRSIEEGDGAFGRSPREIQRSQSWDDRGERRFEKSARRDGARCGFEEGGAGPRKEHARSDSENWRSLREEQEEEEEGSWRLGAGPRRDGDRWRSASPDGGPRSAGWREHGERRRKFEFDLRGDRGGCGEEEGRGGGGSSHLRRCRAPEGFEEDKDGLPEWCLDDEDEEMGTFDASGAFLPLKKGPKEPIPEEQELDFQGLEEEEEPSEGLEEEGPEAGGKELTPLPPQEEKSSSPSPLPTLGPLWGTNGDGDETAEKEPPAAEDDIRGIQLSPGVGSSAGPPGDLEDDEGLKHLQQEAEKLVASLQDSSLEEEQFTAAMQTQGLRHSAAATALPLSHGAARKWFYKDPQGEIQGPFTTQEMAEWFQAGYFSMSLLVKRGCDEGFQPLGEVIKMWGRVPFAPGPSPPPLLGNMDQERLKKQQELAAAALYQQLQHQQFLQLVSSRQLPQCALREKAALGDLTPPPPPPPQQQQQQLTAFLQQLQALKPPRGGDQNLLPTMSRSLSVPDSGRLWDVHTSASSQSGGEASLWDIPINSSTQGPILEQLQLQHKFQERREVELRAKREEEERKRREEKRRQQQQEEQKRRQEEEELFRRKHVRQQELLLKLLQQQQAVPVPPAPSSPPPLWAGLAKQGLSMKTLLELQLEGERQLHKQPPPREPARAQAPNHRVQLGGLGTAPLNQWVSEAGPLWGGPDKSGGGSSGLGLWEDTPKSGGSLVRGLGLKNSRSSPSLSDSYSHLSGRPIRKKTEEEEKLLKLLQGIPRPQDGFTQWCEQMLHTLSATGSLDVPMAVAILKEVESPYDVHDYIRSCLGDTLEAKEFAKQFLERRAKQKASQQRQQQQEAWLSSASLQTAFQANHSTKLGPGEGSKAKRRALMLHSDPSILGYSLHGSSGEIESVDDY
B4: Host cell factor 1 (Homo sapiens), P51610-3 (parent)
chain: B1 partner
partner: B1 chain
B5: Peroxisomal biogenesis factor 19 (Homo sapiens), P40855 (parent)
chain: MAAAEEGCSVGAEADRELEELLESALDDFDKAKPSPAPPSTTTAPDASGPQKRSPGDTAKDALFASQEKFFQELFDSELASQATAEFEKAMKELAEEEPHLVEQFQKLSEAAGRVGSDMTSQQEFTSCLKETLSGLAKNATDLQNSSMSEEELTKAMEGLGMDEGDGEGNILPIMQSIMQNLLSKDVLYPSLKEITEKYPEWLQSHRESLPPEQFEKYQEQHSVMCKICEQFEAETPTDSETTQKARFEMVLDLMQQLQDLGHPPKELAGEMPPGLNFDLDALNLSGPPGASGEQCLIM

In the first assay the parent is B1. To be noted: with HCFC1, P51610-3.
Regarding MRHSLTKLLAASGSNSPTRSESPEPAATCSLPSDLTRAAAGEEETAAAGSPGRKQQFGDEGELEAGRGSRGGVAVRAPSPEEMEEEAIASLPGEETEDMDFLSGLELADLLDPRQPDWHLDPGLSSPGPLSSSGGGSDSGGLWRGDDDDEAAAAEMQRFSDLLQRLLNGIGGCSSSSDSGSAEKRRRKSPGGGGGGGSGNDNNQAATKSPRKAAAAAARLNRLKKKEYVMGLESRVRGLAAENQELRAENRELGKRVQALQEESRYLRAVLANETGLARLLSRLSGVGLRLTTSLFRDSPAGDHDAALPVGKQKQDLLEEDDSAGGVCLHVDKDKVSVEFCSACARKASSSLKM [Y306A], the “effect of a mutation on the interaction” value is listed as “decreasing interaction strength”.

Variants of B2 are the subject of another assay. To be noted: with prs8_human PSMC5, P62195.
Sequence of prs8_human PSMC5, P62195 (P62195 whole entry): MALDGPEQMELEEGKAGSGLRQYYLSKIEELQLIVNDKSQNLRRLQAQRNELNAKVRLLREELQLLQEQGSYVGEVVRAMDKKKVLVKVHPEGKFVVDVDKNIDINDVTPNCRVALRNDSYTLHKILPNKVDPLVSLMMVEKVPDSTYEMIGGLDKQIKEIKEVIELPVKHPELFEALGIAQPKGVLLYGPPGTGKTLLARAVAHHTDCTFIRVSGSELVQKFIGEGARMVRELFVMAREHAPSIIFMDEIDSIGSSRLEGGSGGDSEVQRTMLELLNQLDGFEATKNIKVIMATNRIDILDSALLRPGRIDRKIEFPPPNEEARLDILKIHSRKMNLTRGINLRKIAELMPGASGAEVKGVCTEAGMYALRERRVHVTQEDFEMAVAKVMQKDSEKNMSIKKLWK
Consider MSNKDRHIDSSCSSFIKTEPSSPASLTDSVNHHSPGGSSDASGSYSSTMNGHQNGLDSPPLYPSAPILGGSGPVRKLYDDCSSTIVEDPQTKCEYMLNSMPKRLCLVCGDIASGYHYGVASCEACKAFFKRTIQGNIEYSCPATNECEITKRRRKSCQACRFMKCLKVGMLKEGVRLDRVRGGRQKYKRRIDAENSPYLNPQLVQPAKKPLLWSDPADNKIVSHLLVAEPEKIYAMPDPTVPDSDIKALTTLCDLADRELVVIEGWAKHIPGFSTLSLADQMSLLQSAWMEILILGVVYRSLSFEDELVYADDYIMDEDQSKLAGLLDLNNAILQLVKKYKSMKLEKEEFVTLKAIALANSDSMHIEDVEAVQKLQDVLHEALQDYEAGQHMEDPRRAGKMLMTLPLLRQTSTKAVQHFYNIKLEGKVPMHKLFLEMLEAKV [I264E], for which the “effect of a mutation on the interaction” value is given as “decreasing interaction strength”.

Consider MSNKDRHIDSSCSSFIKTEPSSPASLTDSVNHHSPGGSSDASGSYSSTMNGHQNGLDSPPLYPSAPILGGSGPVRKLYDDCSSTIVEDPQTKCEYMLNSMPKRLCLVCGDIASGYHYGVASCEACKAFFKRTIQGNIEYSCPATNECEITKRRRKSCQACRFMKCLKVGMLKEGVRLDRVRGGRQKYKRRIDAENSPYLNPQLVQPAKKPLLWSDPADNKIVSHLLVAEPEKIYAMPDPTVPDSDIKALTTLCDLADRELVVIIGWAKHIPGFSTLSLADQMSLLQSAWMEILILGVVYRSLSFEDELVYADDYIMDEDQSKLAGLLDLNNAILQLVKKYKSMKLEKEEFVTLKAIALANSDSMHIEDVEAVQKLQDVLHEALQDYEAGQHMEDPRRAGKMLMTLPLLRQTSTKAVQHFYNIKLEGKVPMHKLFLEFLEAKV [M437F], for which the “effect of a mutation on the interaction” value is listed as “decreasing interaction strength”.

The variants in a further assay derive from B3. Particulars: with SNRPB.
On to L508F, for which the “effect of a mutation on the interaction” value is “with no effect”.

For W498E, the “effect of a mutation on the interaction” value is “decreasing interaction strength”.

Variants of B4 are the subject of the next assay. Particulars: with zhang_human CREBZF.
On to MASAVSPANLPAVLLQPRWKRVVGWSGPVPRPRHGHRAVAIKELIVVFGGGNEGIVDELHVYNTATNQWFIPAVRGDIPPGCAAYGFVCDGTRLLVFGGMVEYGKYSNDLYELQASRWEWKRLKAKTPKNGPPPCPRLGHSFSLVGNKCYLFGGLANDSEDPKNNIPRYLNDLYILELRPGSGVVAWDIPITYGVLPPPRESHTAVVYTEKDNKKSKLVIYGGMNGCRLGDLWTLDIDTLTWNKPSLSGVAPLPRSLHSATTIGNKMYVFGGWVPLVMDDVKVATHEKEWKCTNTLACLNLDTMAWETILMDTLEDNIPRARAGHCAVAINTRLYIWSGRDGYRKAWNNQVCCKDLWYLETEKPPPPARVQLVRANTNSLEVSWGAVATADSYLLQLQKYDIPATAATATSPTPNPVPSVPANPPKSL [S225N], for which the “effect of a mutation on the interaction” value was “with no effect”.

MASAVSPANLPAVLLQPRWKRVVGWSGPVPRPRHGHRAVAIKELIVVFGGGNEGIVDELHVYNTATNQWFIPAVRGDIPPGCAAYGFVCDGTRLLVFGGMVEYGKYSNDLYELQASRWEWKRLKAKTPKNGPPPCPRFGHSFSLVGNKCYLFGGLANDSEDPKNNIPRYLNDLYILELRPGSGVVAWDIPITYGVLPPPRESHTAVVYTEKDNKKSKLVIYGGMSGCRLGDLWTLDIDTLTWNKPSLSGVAPLPRSLHSATTIGNKMYVFGGWVPLVMDDVKVATHEKEWKCTNTLACLNLDTMAWETILMDTLEDNIPRARAGHCAVAINTRLYIWSGRDGYRKAWNNQVCCKDLWYLETEKPPPPARVQLVRANTNSLEVSWGAVATADSYLLQLQKYDIPATAATATSPTPNPVPSVPANPPKSL [L138F]: the “effect of a mutation on the interaction” value was “decreasing interaction strength”.

As to MASAVSPANLPAVLLQPRWKRVVGWSGPVPRPRHGHRAVAIKELIVVFGGGNEGIVDELHVYNTATNQWFIPAVRGDIPPGCAAYGFVCDGTRLLVFGGMVEYGKYSNDLYELQASRWEWKRLKAKTPKNGPPPCPRLGHSFSLVGNKCYLFGGLANDSEDPKNNIPRYLNDLYILELRPGSGVVAWDIPITYGVLPPPRESHTAVVYTEKDNKKSKLVIYGGMSGCRLGDLWTLDIDTLTWNKPSLSGVAPLPRSFHSATTIGNKMYVFGGWVPLVMDDVKVATHEKEWKCTNTLACLNLDTMAWETILMDTLEDNIPRARAGHCAVAINTRLYIWSGRDGYRKAWNNQVCCKDLWYLETEKPPPPARVQLVRANTNSLEVSWGAVATADSYLLQLQKYDIPATAATATSPTPNPVPSVPANPPKSL [L257F], the “effect of a mutation on the interaction” value is “decreasing interaction strength”.

The variants in the next assay derive from B5. Particulars: with pex3_human PEX3, P56589.
As to MAAAEEGCSVGAEADRELEELLESALDDKDKAKPSPAPPSTTTAPDASGPQKRSPGDTAKDALFASQEKFFQELFDSELASQATAEFEKAMKELAEEEPHLVEQFQKLSEAAGRVGSDMTSQQEFTSCLKETLSGLAKNATDLQNSSMSEEELTKAMEGLGMDEGDGEGNILPIMQSIMQNLLSKDVLYPSLKEITEKYPEWLQSHRESLPPEQFEKYQEQHSVMCKICEQFEAETPTDSETTQKARFEMVLDLMQQLQDLGHPPKELAGEMPPGLNFDLDALNLSGPPGASGEQCLIM [F29K], the “effect of a mutation on the interaction” value is “decreasing interaction strength”.

The values are drawn from IntAct's records for PubMed 38225382.
